This experiment addresses T1, SLC4A2 (human, UniProt P04920 1-1241, limits assumed).
T1 sequence (looked up): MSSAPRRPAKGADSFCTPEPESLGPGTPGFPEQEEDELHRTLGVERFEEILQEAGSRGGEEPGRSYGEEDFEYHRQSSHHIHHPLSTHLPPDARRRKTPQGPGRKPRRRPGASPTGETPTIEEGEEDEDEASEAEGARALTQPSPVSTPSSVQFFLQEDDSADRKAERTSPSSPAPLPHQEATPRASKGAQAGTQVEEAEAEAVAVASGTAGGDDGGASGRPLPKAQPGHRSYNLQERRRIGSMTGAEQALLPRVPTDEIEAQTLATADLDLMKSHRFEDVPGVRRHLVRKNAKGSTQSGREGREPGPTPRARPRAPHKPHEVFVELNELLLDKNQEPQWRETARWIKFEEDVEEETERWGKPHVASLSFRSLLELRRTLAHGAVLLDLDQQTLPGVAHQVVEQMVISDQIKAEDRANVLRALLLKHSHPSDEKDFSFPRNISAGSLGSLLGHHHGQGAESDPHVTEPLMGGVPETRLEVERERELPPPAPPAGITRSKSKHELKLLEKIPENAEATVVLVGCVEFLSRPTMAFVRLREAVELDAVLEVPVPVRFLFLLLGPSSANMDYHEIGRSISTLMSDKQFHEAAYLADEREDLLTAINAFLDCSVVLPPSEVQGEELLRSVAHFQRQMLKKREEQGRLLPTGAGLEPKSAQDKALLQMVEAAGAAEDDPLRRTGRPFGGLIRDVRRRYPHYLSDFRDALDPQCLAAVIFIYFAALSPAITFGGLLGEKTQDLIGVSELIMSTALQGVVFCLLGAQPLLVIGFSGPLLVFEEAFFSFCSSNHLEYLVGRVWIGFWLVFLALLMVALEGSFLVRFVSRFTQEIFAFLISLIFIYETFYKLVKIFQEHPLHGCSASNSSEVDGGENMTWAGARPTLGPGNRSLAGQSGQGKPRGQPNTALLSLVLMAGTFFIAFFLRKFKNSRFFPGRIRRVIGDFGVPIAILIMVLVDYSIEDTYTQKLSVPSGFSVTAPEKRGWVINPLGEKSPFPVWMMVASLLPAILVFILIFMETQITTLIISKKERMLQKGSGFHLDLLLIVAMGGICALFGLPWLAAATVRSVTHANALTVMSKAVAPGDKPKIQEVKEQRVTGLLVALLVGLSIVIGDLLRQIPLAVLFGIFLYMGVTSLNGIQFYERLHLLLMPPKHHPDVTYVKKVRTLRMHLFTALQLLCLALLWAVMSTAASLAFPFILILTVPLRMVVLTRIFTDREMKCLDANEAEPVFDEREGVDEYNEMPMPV
Nature of the experiment: IP/MS, LZTR1 R810W-FLAG, U87. In short, it runs like this: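 Gel slices were reduced with 5 mM DTT, alkylated with 11 mM IAA and digested overnight at 37° C. with trypsin. Peptides were analysed on an Orbitrap Fusion Tribrid by LC-MS/MS.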

B1: LZTR1 R810W-FLAG (other, human, UniProt Q8N653 1-840, looked up)
chain: MAGPGSTGGQIGAAALAGGARSKVAPSVDFDHSCSDSVEYLTLNFGPFETVHRWRRLPPCDEFVGARRSKHTVVAYKDAIYVFGGDNGKTMLNDLLRFDVKDCSWCRAFTTGTPPAPRYHHSAVVYGSSMFVFGGYTGDIYSNSNLKNKNDLFEYKFATGQWTEWKIEGRLPVARSAHGATVYSDKLWIFAGYDGNARLNDMWTIGLQDRELTCWEEVAQSGEIPPSCCNFPVAVCRDKMFVFSGQSGAKITNNLFQFEFKDKTWTRIPTEHLLRGSPPPPQRRYGHTMVAFDRHLYVFGGAADNTLPNELHCYDVDFQTWEVVQPSSDSEVGGAEVPERACASEEVPTLTYEERVGFKKSRDVFGLDFGTTSAKQPTQPASELPSGRLFHAAAVISDAMYIFGGTVDNNIRSGEMYRFQFSCYPKCTLHEDYGRLWESRQFCDVEFVLGEKEECVQGHVAIVTARSRWLRRKITQARERLAQKLEQEAAPVPREAPGVAAGGARPPLLHVAIREAEARPFEVLMQFLYTDKIKYPRKGHVEDVLLIMDVYKLALSFQLCRLEQLCRQYIEASVDLQNVLVVCESAARLQLSQLKEHCLNFVVKESHFNQVIMMKEFERLSSPLIVEIVRRKQQPPPRTPLDQPVDIGTSLIQDMKAYLEGAGAEFCDITLLLDGHPRPAHKAILAARSSYFEAMFRSFMPEDGQVNISIGEMVPSRQAFESMLRYIYYGEVNMPPEDSLYLFAAPYYYGFYNNRLQAYCKQNLEMNVTVQNVLQILEAADKTQALDMKRHCLHIIVHQFTKVSKLPTLWSLSQQLLLDIIDSLASHISDKQCAELGADI
notes: Stably expressed in U87 cells by lentivirus; also called LZTR1-FLAG-R810W; LZTR1 RW; not shown: FLAG tag
Turning to B1, the binding result was “binds”.
